Measurements from publication PMC5138414, “Structural Basis for Redox Regulation of Cytoplasmic and Chloroplastic Triosephosphate Isomerases from Arabidopsis thaliana” (Frontiers in Plant Science, 2016).

B1: pdTPI (Arabidopsis thaliana) (protein)
chain: MAGSGKFFVGGNWKCNGTKDSIAKLISDLNSATLEADVDVVVSPPFVYIDQVKSSLTDRIDISGQNSWVGKGGAFTGEISVEQLKDLGCKWVILGHSERRHVIGEKDEFIGKKAAYALSEGLGVIACIGEKLEEREAGKTFDVCFAQLKAFADAVPSWDNIVVAYEPVWAIGTGKVASPQQAQEVHVAVRGWLKKNVSEEVASKTRIIYGGSVNGGNSAELAKEEDIDGFLVGGASLKGPEFATIVNSVTSKKVAA
notes: homodimer
B2: cTPI (Arabidopsis thaliana) (protein)
chain: MARKFFVGGNWKCNGTAEEVKKIVNTLNEAQVPSQDVVEVVVSPPYVFLPLVKSTLRSDFFVAAQNCWVKKGGAFTGEVSAEMLVNLDIPWVILGHSERRAILNESSEFVGDKVAYALAQGLKVIACVGETLEEREAGSTMDVVAAQTKAIADRVTNWSNVVIAYEPVWAIGTGKVASPAQAQEVHDELRKWLAKNVSADVAATTRIIYGGSVNGGNCKELGGQADVDGFLVGGASLKPEFIDIIKAAEVKKSA
notes: homodimer

Substrate: O=CC(O)COP(=O)(O)O
Experiment: purified protein
Assay type: biochemical, Arabidopsis thaliana
Conditions: G3P to DHAP direction, 0-4.0 mM G3P (DL-G3P supplied), TEA pH 7.4, 10 mM EDTA, 0.01% BSA, 0.2 mM NADH, apparent constant

Row | Protein | Km | kcat | kcat/Km
1 | B1 | 400 ± 20 µM | 2340 ± 41.6 s⁻¹ | 5.84e+06 M⁻¹ s⁻¹
2 | B2 | 480 ± 50 µM | 2560 ± 43.9 s⁻¹ | 5.34e+06 M⁻¹ s⁻¹
